{
  "source": "paper PMC4560413",
  "about": "“Ethyl Pyruvate Emerges as a Safe and Fast Acting Agent against Trypanosoma brucei by Targeting Pyruvate Kinase Activity” (PLoS ONE, 2015)",
  "tested_on": "C=C(OP(=O)(O)O)C(=O)O",
  "assay": "purified protein",
  "settings": "Mg2+",
  "data": [
    {"substance": "pyruvate kinase (PK-1 from rabbit muscle) (Oryctolagus cuniculus)", "values": [
      {"measurement": "Km", "value": "220 ± 20", "unit": "µM"}
    ]}
  ]
}
